Each block holds one binder with its values, some of them ahead of it.
How the values were obtained:
MinD(R3E) = target: T1, MinD(R3E) (E. coli, UniProt P0AEZ3 1-270, R3E); experiment: 90° light scatter; MinC (4 μM) and MinD or MinD(R3E) (8 μM) in 20 mM MES pH 6.5, 100 mM KCl, 10 mM MgCl2; after 5 min ATP added alone or with ClpX (0.75 μM), ClpX(E185Q) (0.75 μM), ClpP (0.9 μM) or ClpX and ClpP, with an ATP-regenerating system; monitored for 30 min more; conditions: both partners purified
T1 construct: MinD of Escherichia coli with Arg 3 changed to glutamate by site-directed mutagenesis; Same construct as m1 apart from R3E; source: E. coli BL21 (λDE3), overexpressed from a plasmid (pEt-MinD(R3E)), purified
T1 sequence (looked up): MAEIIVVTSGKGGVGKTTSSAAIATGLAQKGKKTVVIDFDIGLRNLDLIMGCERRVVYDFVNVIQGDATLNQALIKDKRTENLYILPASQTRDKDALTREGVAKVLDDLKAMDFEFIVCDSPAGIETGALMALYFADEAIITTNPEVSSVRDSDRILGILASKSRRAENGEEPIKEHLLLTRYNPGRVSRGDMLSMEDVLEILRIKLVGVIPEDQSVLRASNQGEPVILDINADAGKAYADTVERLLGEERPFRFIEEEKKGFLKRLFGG

ClpX = target: T2, ClpX (E. coli, UniProt P0A6H1 1-424); experiment: negative-stain transmission electron microscopy; MinC (4 μM), MinD or MinD(R3E) (8 μM), ATP (8 mM), with or without ClpXP, or ClpXP with ATP alone, in copolymer assembly buffer; carbon/formvar grids, fixed with glutaraldehyde, stained with uranyl acetate; conditions: both partners purified
T2 construct: ClpX, AAA+ unfoldase of Escherichia coli; concentrations are reported as ClpX hexamers; Purified as a native protein by earlier published methods; also called wildtype ClpX; source: E. coli BL21 (λDE3), overexpressed from a plasmid, purified as native protein

binding result (MinD(R3E)): binds
B1: MinC (natural protein, E. coli, UniProt P18196 1-231, looked up)
chain: MSNTPIELKGSSFTLSVVHLHEAEPKVIHQALEDKIAQAPAFLKHAPVVLNVSALEDPVNWSAMHKAVSATGLRVIGVSGCKDAQLKAEIEKMGLPILTEGKEKAPRPAPTPQAPAQNTTPVTKTRLIDTPVRSGQRIYAPQCDLIVTSHVSAGAELIADGNIHVYGMMRGRALAGASGDRETQIFCTNLMAELVSIAGEYWLSDQIPAEFYGKAARLQLVENALTVQPLN
notes: concentrations are reported as MinC dimers; Purified as a native protein by earlier published methods; source: E. coli BL21 (λDE3), overexpressed from a plasmid (pEt-MinC), purified as native protein

binding result (ClpX): binds
B2: ClpP (enzyme)
chain: not shown
notes: ClpP, serine protease of Escherichia coli; concentrations are reported as ClpP tetradecamers; Purified as a native protein by earlier published methods; source: E. coli BL21 (λDE3), overexpressed from a plasmid, purified as native protein; copies: 14
